# From US5716934A, “Eck receptor ligands” (Amgen Inc., priority 1995, dated 1998)
# B1: EBP: eck receptor binding protein, polypeptide ligand of the eck receptor (B61 gene product, SEQ. ID. NO. 1); source form not specified at place (protein)
# chain: MEFLWAPLLGLCCSLAAADRHTVFWNSSNPKFRNEDYTIHVQLNDYVDIICPHYEDHSVADAAMEQYILYLVEHEEYQLCQPQSKDQVRWQCNRPSAKHGPEKLSEKFQRFTPFTLGKEFKEGHSYYYISKPIHQHEDRCLRLKVTVSGKITHSPQAHVNPQEKRLAADDPEVRVLHSIGHSAAPRLFPLAWTVLLLPLLLLQTP
# Key:
# [1] = tested on: immobilized soluble extracellular domain of eck; test: Stability of eck binding activity of formulated EBP (BIAcore); assay type: physicochemical, human
# Method: FIG. 7. Binding of CHO-derived EBP in various detergent formulations to immobilized eck receptor as measured by BIAcore. Purified EBP was diluted to 100 μg/ml in PBS in the presence or absence of detergent and incubated for 2 hrs. at 3° C. Protein samples were diluted to the concentrations indicated in the figure and tested for eck receptor binding.
# Measuring the ability of EBP to bind to the immobilized soluble extracellular domain of eck using BIAcore, it was determined that dilute solutions of purified EBP rapidly lost the ability to bind to the eck receptor unless formulated with a protective agent such as a detergent. Recombinant CHO EBP diluted into PBS to 100 μg/ml and incubated for 2 hours at […] lost approximately 50% of its eck binding activity. […] (see FIG. 7).
# hepatocytes = test: 3H-thymidine incorporation in primary hepatocyte cultures; assay type: cell-based; conditions: EBP at 20 ng/ml, aFGF at 20 ng/ml, 24 to 48 hours, serum-free
# Method: Hepatocytes were isolated by the in situ two step collagenase perfusion technique described by Seglen (Methods in Toxicol., Vol. 1A, 231-243 (1993). Briefly, the perfused livers were dispersed in ice cold Hank's buffer, filtered through a nylon mesh, and hepatocytes separated from nonparenchymal cells by repeated centrifugation at 50×g. The hepatocytes were determined to be greater than 85% viable by trypan blue exclusion. The hepatocytes were cultured on plates coated with rat tail collagen and plated in Williams E containing 5% FCS, 10^-7 M insulin, 10^-8 M dexamethason, glutamine, penicillin and streptomycin.
# Cells were allowed to attach for 3-4 hours in serum containing media and then transferred to serum-free media. The appropriate concentrations of EBP or other growth factors were added and the cells were incubated for 24 to 48 hours in the presence of ^3 H-thymidine. After incubation, the extent of ^3 H-thymidine incorporation into cells was determined. The growth factors tested were keratinocyte growth factor (KGF) at 10 ng/ml, acidic FGF (aFGF) at 20 ng/ml, and EBP at 20 ng/ml. […] In this particular experiment, the serum free value was unusually high (about 3-fold).
# colon crypt cells = test: Colon crypt assay; assay type: cell-based, mouse; conditions: bFGF 60 ng/ml, EBP 500 ng/ml
# Method: Colons from five (BDF) mice were removed and crypts isolated using a non enzymatic (EDTA) extraction method. Briefly, colons are washed and allowed to sit for 20 min. in a solution of PBS containing 0.04% sodium hypochlorite. Crypts are isolated by incubating the tissue for 1 hour at 37° C. in a solution of PBS containing 3 mM EDTA and 0.5 mM DTT. Crypts are then subjected to pancreatin digestion (0.2% in PBS) for 90 min. at 37° C. in order to obtain a single cell suspension. Cells are washed in PBS, counted and viability determined by trypan blue exclusion (85% in this experiment). Cells are then plated in a top layer of 0.37% Sigma low melt agar onto a bottom layer of 0.5% agar. The RPMI media used in the agar includes the presence of 1×ITS (insulin, transferrin, and selenium, Gibco). Incubations were done in the presence of 1% fetal calf serum (FCS) and the indicated growth factors at the following concentration: TGFα, 50 ng/ml; bFGF, 60 ng/ml; EBP, 500 ng/ml. Control incubations lacked growth factors and/or FCS. Each of the various culture conditions was performed in triplicate and scored every several days.
# [2] = tested on: extracellular domain of the kit receptor; test: BIAcore binding to surfaces activated with kit receptor extracellular domain
# Excerpt: SDS-PAGE analysis of the fractions from this column confirmed that EBP was co-eluted with the receptor binding activity.
# EGF receptor = EGF receptor phosphorylation in LIM 2405 cells treated with EBP; assay type: cell-based, human
# [3] = tested on: bone marrow suspensions from BDF mice; test: Murine bone marrow colony formation (hematopoiesis); assay type: cell-based, mouse
# Method: Unfractionated bone marrow suspensions from BDF mice were plated into serum free culture medium (Iscove's modified Dulbecco's medium) in 0.3% agarose and incubated at 37° C., 5% CO2 for ten days at a cell concentration of 1×10^5 /ml in 96 well plates. Total volume per […] was 50 μl . EBP and other growth factors were added in the amounts indicated and colonies were scored at the tenth day of incubation.
molecule,measurement,setting,value
B1,loss of eck binding activity when formulated in detergent,"[1]; 1 mM CHAPS, 0.1% NP-40, 0.1% tween 20, 0.1% triton-X 100, or 0.1% tween 80",loss of activity can be avoided
same,stability of eck binding activity,"[1]; 2-5 mg/ml in detergent solutions, 3° C.",stable for at least one week
same,stability of eck binding activity,"[1]; 10-500 μg/ml, stored at -20° C. or multiple freeze thaw cycles",will lose activity
same,loss of eck binding activity when incubated with protein carriers,[1]; diluted EBP with carriers such as fetal calf serum,can also be avoided
same,amount of 3H-thymidine incorporation stimulated,hepatocytes,about the same as that induced by aFGF
same,"colon crypt cell clusters, overall observation",colon crypt cells,occasional large clusters
same,binding to BIAcore surfaces activated with the extracellular domain of the kit receptor,[2],did not bind
same,phosphorylation of the EGF receptor,EGF receptor,does not result in spurious phosphorylation
same,stimulation of CFU-M or BFU-E/CFU-E,[3]; EBP alone,no stimulation
same,potentiation of murine IL-3 dependent CFU-C formation compared to IL-3 alone,"[3]; EBP at 1 μg/ml with murine IL-3, colonies scored day 10",about 2 fold
